Test results reported in IntAct's records for PubMed 19513107.

B1: STE20-related kinase adapter protein alpha (Homo sapiens), Q7RTN6-1 (parent)
chain: MSFLVSKPERIRRWVSEKFIVEGLRDLELFGEQPPGDTRRKTNDASSESIASFSKQEVMSSFLPEGGCYELLTVIGKGFEDLMTVNLARYKPTGEYVTVRRINLEACSNEMVTFLQGELHVSKLFNHPNIVPYRATFIADNELWVVTSFMAYGSAKDLICTHFMDGMNELAIAYILQGVLKALDYIHHMGYVHRSVKASHILISVDGKVYLSGLRSNLSMISHGQRQRVVHDFPKYSVKVLPWLSPEVLQQNLQGYDAKSDIYSVGITACELANGHVPFKDMPATQMLLEKLNGTVPCLLDTSTIPAEELTMSPSRSVANSGLSDSLTTSTPRPSNGDSPSHPYHRTFSPHFHHFVEQCLQRNPDARPSASTLLNHSFFKQIKRRASEALPELLRPVTPITNFEGSQSQDHSGIFGLVTNLEELEVDDWEF
partner: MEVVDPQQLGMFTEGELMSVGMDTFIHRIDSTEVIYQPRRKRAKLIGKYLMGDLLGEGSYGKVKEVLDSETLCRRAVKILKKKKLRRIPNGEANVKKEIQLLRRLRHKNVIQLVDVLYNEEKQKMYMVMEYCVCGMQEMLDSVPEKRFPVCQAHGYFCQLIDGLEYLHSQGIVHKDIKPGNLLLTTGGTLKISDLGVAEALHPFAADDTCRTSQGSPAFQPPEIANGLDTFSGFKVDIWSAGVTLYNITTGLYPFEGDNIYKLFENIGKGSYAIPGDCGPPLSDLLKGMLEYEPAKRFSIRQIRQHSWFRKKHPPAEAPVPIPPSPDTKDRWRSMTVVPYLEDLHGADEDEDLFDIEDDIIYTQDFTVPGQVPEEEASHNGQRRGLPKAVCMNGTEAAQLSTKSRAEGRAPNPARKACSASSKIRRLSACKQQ
B2: Calcium-binding protein 39 (Homo sapiens), Q9Y376 (parent)
chain: MPFPFGKSHKSPADIVKNLKESMAVLEKQDISDKKAEKATEEVSKNLVAMKEILYGTNEKEPQTEAVAQLAQELYNSGLLSTLVADLQLIDFEGKKDVAQIFNNILRRQIGTRTPTVEYICTQQNILFMLLKGYESPEIALNCGIMLRECIRHEPLAKIILWSEQFYDFFRYVEMSTFDIASDAFATFKDLLTRHKLLSAEFLEQHYDRFFSEYEKLLHSENYVTKRQSLKLLGELLLDRHNFTIMTKYISKPENLKLMMNLLRDKSRNIQFEAFHVFKVFVANPNKTQPILDILLKNQAKLIEFLSKFQNDRTEDEQFNDEKTYLVKQIRDLKRPAQQEA
partner: B1 partner
B3: STE20-related kinase adapter protein alpha (Homo sapiens), Q7RTN6-1 (parent)
chain: B1 chain
partner: B2 chain
B4: Calcium-binding protein 39 (Homo sapiens), Q9Y376 (parent)
chain: B2 chain
partner: B1 chain

Variants of: B1
Details: with stk11_human STK11, Q15831

Row | effect of a mutation on the interaction | Variant
1 | disrupting interaction | G76D;G78D;K197E;R215E
2 | decreasing interaction | G76D;G78D;R215E
3 | disrupting interaction | G76D;G78D;K197E

Variants of: B2
Details: with stk11_human STK11, Q15831

Row | effect of a mutation on the interaction | Variant
4 | disrupting interaction | R227A;R240A
5 | disrupting interaction | R227A;R240A;M260A

Variants of: B3
Details: with cab39_human CAB39, Q9Y376

Row | effect of a mutation on the interaction | Variant
6 | disrupting interaction | I138Q
7 | decreasing interaction | N126G
8 | decreasing interaction | N109A
9 | disrupting interaction | E105A
10 | disrupting interaction | Y185F

Variants of: B4
Details: with STRADA

Row | effect of a mutation on the interaction | Variant
11 | disrupting interaction | E93A
12 | disrupting interaction | Q228A
13 | disrupting interaction | Y223A
14 | disrupting interaction | F178A
15 | disrupting interaction | K96A
16 | disrupting interaction | F92A
17 | disrupting interaction | M260A
18 | disrupting interaction | R107A
19 | disrupting interaction | S182A
20 | disrupting interaction | I145A

Variants of: B4
Details: with STRADA
Remark: another data set of the same source

Row | effect of a mutation on the interaction | Variant
21 | disrupting interaction | R227A

Variants of: B4
Details: with STRADA
Remark: another data set of the same source

Row | effect of a mutation on the interaction | Variant
22 | disrupting interaction | R227A;M260A
